Four substances from US7247438 can be followed below.

Experiment [1] concerns the target VSV8/Kb complex (vesicular stomatitis virus; mouse) (UniProt P01887). The experiment is described as follows: cell-based or functional assay.
Experiment [2] addresses activated thymic caspase (~17 kD subunit) of VSV8-triggered N15 TCRtg RAG-2-/- H-2b mouse thymocytes (mouse). The experiment is described as follows: cell-based or functional assay.
For experiment [3] the target is unchanged. As to the kind of experiment: preincubation with zVADfmk, competitor biotin-DEVDamk, thymic lysate, streptavidin-HRP blot.
The target in a further experiment is mouse CD3ε (mouse) (UniProt P22646). As to the kind of experiment: cell-based or functional assay.

VSV8/Kb complex (vesicular stomatitis virus; mouse), sequence (P01901 22-369 limits assumed, chain 2 of 2): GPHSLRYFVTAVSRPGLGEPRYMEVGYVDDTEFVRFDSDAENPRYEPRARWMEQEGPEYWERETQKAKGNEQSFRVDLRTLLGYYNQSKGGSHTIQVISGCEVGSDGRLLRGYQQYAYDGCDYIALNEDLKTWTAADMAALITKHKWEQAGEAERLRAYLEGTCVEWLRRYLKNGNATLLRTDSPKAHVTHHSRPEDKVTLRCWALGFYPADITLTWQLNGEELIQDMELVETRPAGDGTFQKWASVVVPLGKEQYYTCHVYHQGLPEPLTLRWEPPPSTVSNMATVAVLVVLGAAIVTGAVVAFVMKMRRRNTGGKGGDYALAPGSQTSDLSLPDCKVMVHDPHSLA
VSV8/Kb complex (vesicular stomatitis virus; mouse), sequence (P01887 21-119 limits assumed, chain 3 of 2): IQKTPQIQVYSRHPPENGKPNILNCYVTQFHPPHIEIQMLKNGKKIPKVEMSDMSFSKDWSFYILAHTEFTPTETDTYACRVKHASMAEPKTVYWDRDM

For the substance N15 TCR, in experiment [1], the TdT positive cells per mm2 (TUNEL), FTOC N15tg #1, VSV8 (TdT positive cells / mm2) came to 429; the TdT positive cells per mm2 (TUNEL), FTOC N15tg #2, VSV8 (TdT positive cells / mm2) worked out at 456; the TdT positive cells per mm2 (TUNEL), FTOC N15tg #3, VSV8 (TdT positive cells / mm2) amounted to 441.

For the substance “N-(Z-Valinylalanyl)aspartic acid methyl ketone, b-methyl ester (peptide)”, in experiment [2], the TdT positive cells per mm2 (TUNEL), FTOC N15tg #1, zVADmk + VSV8 (TdT positive cells / mm2) came out at 360; the TdT positive cells per mm2 (TUNEL), FTOC N15tg #2, zVADmk + VSV8 (TdT positive cells / mm2) worked out at 525; the TdT positive cells per mm2 (TUNEL), FTOC N15tg #3, zVADmk + VSV8 (TdT positive cells / mm2) amounted to 461.

In experiment [3], “N-benzyloxycarbonyl-Val-Ala-Asp(OMe)-fluoromethylketone (peptide)” returned a molar excess over biotin-DEVDamk at which the ~17 kD band is no longer detectable of 100 to 1000 fold. In experiment [2], the TdT positive cells per mm2 (TUNEL), FTOC N15tg #1, zVADfmk + VSV8 (TdT positive cells / mm2) came to 6; the TdT positive cells per mm2 (TUNEL), FTOC N15tg #2, zVADfmk + VSV8 (TdT positive cells / mm2) is 1; the TdT positive cells per mm2 (TUNEL), FTOC N15tg #3, zVADfmk + VSV8 (TdT positive cells / mm2) was determined as 2.

In the experiment with mouse CD3ε (mouse), “anti-CD3ε specific hamster anti-mouse mAb 145-2C11 (antibody)” came in with a percent DP thymocytes in C57BL/6 FTOC after 18 hours with 200 mg/ml 2C11 mAb (FACS) of 37%.
